Patent publication US20050008615A1

What was measured:
[1] = target: human IL-18 binding protein (human) (UniProt O95998); test: SPR (BIAcore)
[2] = target: human IL-18 binding protein (human) (UniProt O95998); test: IGEN electrochemiluminescence immunoassay of the IL-18:IL-18BP complex; 125 ng/ml of each
[3] = target: human IL-18 binding protein (human) (UniProt O95998); test: IGEN electrochemiluminescence immunoassay of the IL-18:IL-18BP complex (ruthenium 16D10 anti-IL-18 mAb, biotinylated mAb 36 anti-IL-18BP); 125 ng/ml of each

Chain of native human IL-18 (SEQ ID NO:1) (Q14116 37-193): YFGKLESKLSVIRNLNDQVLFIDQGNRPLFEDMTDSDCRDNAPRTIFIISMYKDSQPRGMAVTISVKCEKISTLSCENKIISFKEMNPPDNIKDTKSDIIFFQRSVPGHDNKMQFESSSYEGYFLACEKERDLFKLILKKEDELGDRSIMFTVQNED

| Substance | Kd [1] | further results |
| --- | --- | --- |
| human IL-18 C38S, C68S, L144C (SEQ ID NO:9) monopegylated at C144 with 20K PEG (from UniProt Q14116 37-193) (ligand) | 1.56 nM | – |
| human IL-18 C38S, C68D, D157C (SEQ ID NO:8) monopegylated at C157 with 40K PEG (from UniProt Q14116 37-192) (ligand) | 23.6 nM | – |
| C157 20K PEG (human IL-18 D157C substitution mutant pegylated at C157 with 20K PEG, Table 7) (ligand) | – | ECL units [2]: 63500 ECL units |
| human IL-18 C38S, C68D, D157C (SEQ ID NO:8) (from UniProt Q14116 37-192) (ligand) | 0.134 nM | – |
| human IL-18 C38S, C68S, D157C (SEQ ID NO:10) monopegylated at C157 with 20K PEG (from UniProt Q14116 37-192) (ligand) | 1.27 nM | – |
| C144 20K PEG (human IL-18 L144C substitution mutant pegylated at C144 with 20K PEG, Table 7) (ligand) | – | ECL units [2]: 154000 ECL units |
| human IL-18 C38S, C68S, L144C (SEQ ID NO:9) monopegylated at C144 with 30K PEG (from UniProt Q14116 37-193) (ligand) | 1.51 nM | – |
| human IL-18 C38S, C68D, D157C (SEQ ID NO:8) monopegylated at C157 with 30K PEG (from UniProt Q14116 37-192) (ligand) | 4.91 nM | – |
| C157 non-PEG (human IL-18 substitution mutant with D157C, Table 7) (ligand) | – | ECL units [2]: 377000 ECL units |
| human IL-18 C38S, C68D, L144C (SEQ ID NO:7) (from UniProt Q14116 37-193) (ligand) | 0.101 nM | – |
| human IL-18 C38S, C68S, D157C (SEQ ID NO:10) monopegylated at C157 with 30K PEG (from UniProt Q14116 37-192) (ligand) | 1.29 nM | – |
| human IL-18 C38S (SEQ ID NO:4) monopegylated at C68 with 20K PEG (from UniProt Q14116 37-193) (ligand) | – | ECL units [2]: 49100 ECL units |
| human IL-18 C38S, C68D, D157C (SEQ ID NO:8) monopegylated at C157 with 20K PEG (from UniProt Q14116 37-192) (ligand) | 5.53 nM | – |
| human IL-18 C38S, C68D, L144C (SEQ ID NO:7) monopegylated at C144 with 40K PEG (from UniProt Q14116 37-193) (ligand) | 4.71 nM | – |
| human IL-18 C38S, C68D, L144C (SEQ ID NO:7) monopegylated at C144 with 20K PEG (from UniProt Q14116 37-193) (ligand) | 1.16 nM | – |
| C144 non-PEG (human IL-18 substitution mutant with L144C, Table 7) (ligand) | – | ECL units [2]: 561000 ECL units |
| human IL-18 C38S (SEQ ID NO:4) (from UniProt Q14116 37-193) (ligand) | – | ECL units [2]: 746000 ECL units |
| human IL-18 C38S, C68S, L144C (SEQ ID NO:9) (from UniProt Q14116 37-193) (ligand) | 0.156 nM | – |
| human IL-18 C38S, C68S, D157C (SEQ ID NO:10) (from UniProt Q14116 37-192) (ligand) | 0.163 nM | – |
| native human IL-18 (SEQ ID NO:1) (from UniProt Q14116 37-193) (ligand) | 0.135 nM | ECL units [3]: 1.1e+06 ECL units |
| human IL-18 C38S, C68D, L144C (SEQ ID NO:7) monopegylated at C144 with 30K PEG (from UniProt Q14116 37-193) (ligand) | 1.51 nM | – |
